Experiment [1] addresses human P-cadherin–Fc fusion protein (human) (UniProt P22223). Briefly: cell adhesion assay.
Experiment [2] deals with purified human IgG1 (human). The experiment in a line: cell adhesion assay.

Bounds are passed on as bounds.

These results are taken from PMC2132596.

Chain of human P-cadherin–Fc fusion protein (human) (P22223 108-654): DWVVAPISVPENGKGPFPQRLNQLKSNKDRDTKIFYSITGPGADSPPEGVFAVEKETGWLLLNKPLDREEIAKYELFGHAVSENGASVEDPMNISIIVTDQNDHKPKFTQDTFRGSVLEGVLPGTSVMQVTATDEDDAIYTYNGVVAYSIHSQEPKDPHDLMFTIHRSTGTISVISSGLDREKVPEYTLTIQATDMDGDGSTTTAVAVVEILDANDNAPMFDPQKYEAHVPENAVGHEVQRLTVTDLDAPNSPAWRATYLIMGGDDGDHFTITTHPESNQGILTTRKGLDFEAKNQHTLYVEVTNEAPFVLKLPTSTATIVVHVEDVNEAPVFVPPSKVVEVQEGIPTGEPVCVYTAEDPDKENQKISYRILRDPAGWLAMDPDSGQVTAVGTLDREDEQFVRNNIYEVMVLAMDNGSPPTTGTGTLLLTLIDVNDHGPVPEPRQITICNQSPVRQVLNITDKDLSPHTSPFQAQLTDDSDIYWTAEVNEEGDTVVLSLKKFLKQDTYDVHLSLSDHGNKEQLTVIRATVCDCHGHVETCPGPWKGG

In experiment [1], “integrin αEβ7 of cultured human intestinal intraepithelial lymphocytes (from UniProt P38570 19-1179; P26010 20-798) (complex)” yielded a fold more coated fusion protein needed than of E-cadherin–Fc of more than 100 fold and a percent of cells adhering at 500 ng/well of 40%.

For the substance “αEβ7 on JY′ cells transfected with full-length human αE (JY′-αE) (from UniProt P38570 19-1179; P26010 20-798) (complex)”, the percent of cells adhering in experiment [2] is less than 3%.
